How the values were obtained:
[1] = molecular target: T1, human 5T4 on the cell surface (human, UniProt Q13641 32-420); assay: cell-based or functional assay
T1 sequence (looked up): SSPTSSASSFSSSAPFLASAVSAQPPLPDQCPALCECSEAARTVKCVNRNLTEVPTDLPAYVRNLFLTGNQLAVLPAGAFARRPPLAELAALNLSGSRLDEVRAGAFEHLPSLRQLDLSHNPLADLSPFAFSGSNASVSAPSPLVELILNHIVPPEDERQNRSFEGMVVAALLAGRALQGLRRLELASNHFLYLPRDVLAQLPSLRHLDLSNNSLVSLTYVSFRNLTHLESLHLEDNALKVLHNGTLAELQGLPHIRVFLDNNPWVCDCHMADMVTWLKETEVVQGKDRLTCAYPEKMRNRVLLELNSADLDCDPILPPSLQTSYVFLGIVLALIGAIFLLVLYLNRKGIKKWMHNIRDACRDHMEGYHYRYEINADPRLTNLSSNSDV

[2] = molecular target: T1, human 5T4 on the cell surface; assay: flow cytometry on H1975 cells (22,000 5T4 per cell)
[3] = molecular target: T1, human 5T4 on the cell surface; assay: cell-based or functional assay; remark: listed apart in the source
[4] = molecular target: T2, human 5T4 (SPR and epitope mapping, construct not stated) (human, UniProt Q13641 32-355, limits assumed); assay: SPR, h5T4 binding; sample stressed in Tris pH 9, 7 days 40 °C; heterogeneous binding, approximate value
T2 construct: also called h5T4
T2 sequence (looked up): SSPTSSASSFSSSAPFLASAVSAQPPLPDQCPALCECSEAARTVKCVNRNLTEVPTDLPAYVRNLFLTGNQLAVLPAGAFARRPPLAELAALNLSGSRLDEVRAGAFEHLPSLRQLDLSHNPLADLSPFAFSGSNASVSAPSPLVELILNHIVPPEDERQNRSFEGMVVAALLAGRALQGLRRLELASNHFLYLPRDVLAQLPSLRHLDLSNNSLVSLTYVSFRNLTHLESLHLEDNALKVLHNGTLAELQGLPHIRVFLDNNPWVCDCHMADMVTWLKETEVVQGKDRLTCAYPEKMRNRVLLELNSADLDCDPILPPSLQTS

[5] = molecular target: T2, human 5T4 (SPR and epitope mapping, …); assay: SPR, h5T4 binding; control sample, HST pH 6, 7 days 4 °C
[6] = molecular target: T1, human 5T4 on the cell surface; assay: flow cytometry on HT29 cells (5,000 5T4 per cell)
[7] = molecular target: T2, human 5T4 (SPR and epitope mapping, …); assay: SPR, h5T4 binding; sample stressed in acetate pH 4, 7 days 40 °C
[8] = molecular target: T1, human 5T4 on the cell surface; assay: cell-based or functional assay; remark: listed apart in the source
[9] = molecular target: T1, human 5T4 on the cell surface; assay: cell-based or functional assay; remark: listed apart in the source
[10] = molecular target: T3, human NKG2D (recombinant, construct not stated) (human, UniProt P26718 78-216, limits assumed); assay: SPR, kinetics fit
T3 construct: also called hNKG2D
T3 sequence (looked up): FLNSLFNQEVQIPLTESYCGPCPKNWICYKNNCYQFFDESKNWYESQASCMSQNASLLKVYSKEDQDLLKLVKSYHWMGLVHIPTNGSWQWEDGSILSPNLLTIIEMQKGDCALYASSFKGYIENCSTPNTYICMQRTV

Human CD16aV = molecular target: T4, Human CD16aV (human, UniProt P08637 17-208); assay: SPR, kinetics fit
T4 construct: position 158 counts on the mature protein
T4 sequence (P08637 17-208 F176V): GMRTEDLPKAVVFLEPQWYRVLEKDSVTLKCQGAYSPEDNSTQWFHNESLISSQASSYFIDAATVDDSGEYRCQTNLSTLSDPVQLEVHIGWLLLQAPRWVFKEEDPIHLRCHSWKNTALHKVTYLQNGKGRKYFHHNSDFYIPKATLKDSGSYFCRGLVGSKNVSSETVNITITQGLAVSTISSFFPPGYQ

[11] = molecular target: T2, human 5T4 (SPR and epitope mapping, …); assay: SPR, kinetics fit
[12] = molecular target: T2, human 5T4 (SPR and epitope mapping, …); assay: SPR, h5T4 binding; sample oxidised in PBS 0.02% H2O2, 24 hrs RT
[13] = molecular target: T1, human 5T4 on the cell surface; assay: flow cytometry on HCT116 cells (14,000 5T4 per cell)
[14] = molecular target: T1, human 5T4 on the cell surface; assay: flow cytometry on FaDu cells (22,000 5T4 per cell)
[15] = molecular target: T2, human 5T4 (SPR and epitope mapping, …); assay: SPR, h5T4 binding; sample stressed in HST pH 6, 7 days 50 °C
[16] = molecular target: T1, human 5T4 on the cell surface; assay: flow cytometry on primary lung cancer-associated fibroblasts (Donor #377913A1), fold over background
[17] = molecular target: T1, human 5T4 on the cell surface; assay: flow cytometry on H292 cells (12,000 5T4 per cell)

B1: AB1310/AB1783-TriNKET® (bispecific antibody, human IgG1, kappa)
chain: DIQLTQSPSSLSASVGDRVTITCRASQSVTTSNYNYMHWFQQKPGKAPKLLIKFASNLESGVPSRFSGSGSGTDFTLTISSLQPEDFATYYCQHSWEIPWTFGCGTKVEIKGGGGSGGGGSGGGGSGGGGSEVQLVESGGGLVKPGGSLRLSCAASRFTFSDFGMHWVRQAPGKCLEWVSYISSGSSTIYYADSVKGRFTISRDNAKNSLYLQMNSLRAEDTAVYYCASSQSYYRGTLDYWGQGTTVTVSSASDKTHTCPPCPAPELLGGPSVFLFPPKPKDTLMISRTPEVTCVVVDVSHEDPEVKFNWYVDGVEVHNAKTKPREEQYNSTYRVVSVLTVLHQDWLNGKEYKCKVSNKALPAPIEKTISKAKGQPREPRVYTLPPCRDELTKNQVSLTCLVKGFYPSDIAVEWESNGQPENNYKTTPPVLVSDGSFTLYSKLTVDKSRWQQGNVFSCSVMHEALHNHYTQKSLSLSPG
heavy: EVQLVESGGGLVKPGGSLRLSCAASGFTFSSYSMNWVRQAPGKGLEWVSSISSSSSYIYYADSVKGRFTISRDNAKNSLYLQMNSLRAEDTAVYYCARGAPIGAAAGWFDPWGQGTLVTVSSASTKGPSVFPLAPSSKSTSGGTAALGCLVKDYFPEPVTVSWNSGALTSGVHTFPAVLQSSGLYSLSSVVTVPSSSLGTQTYICNVNHKPSNTKVDKKVEPKSCDKTHTCPPCPAPELLGGPSVFLFPPKPKDTLMISRTPEVTCVVVDVSHEDPEVKFNWYVDGVEVHNAKTKPREEQYNSTYRVVSVLTVLHQDWLNGKEYKCKVSNKALPAPIEKTISKAKGQPREPQVCTLPPSRDELTENQVSLTCLVKGFYPSDIAVEWESNGQPENNYKTTPPVLDSDGSFFLYSWLTVDKSRWQQGNVFSCSVMHEALHNHYTQKSLSLSPG
light: DIQMTQSPSSVSASVGDRVTITCRASQGISSWLAWYQQKPGKAPKLLIYAASSLQSGVPSRFSGSGSGTDFTLTISSLQPEDFATYYCQQGVSFPRTFGGGTKVEIKRTVAAPSVFIFPPSDEQLKSGTASVVCLLNNFYPREAKVQWKVDNALQSGNSQESVTEQDSKDSTYSLSSTLTLSKADYEKHKVYACEVTHQGLSSPVTKSFNRGEC
notes: also called AB1310-TriNKET®; AB1783 10F10 F3′ LH H(T62S) CHO opt
NK cell-mediated lysis of primary CAFs, EC50 (first column pair) [1]: 0.081 nM
NK cell-mediated lysis of primary CAFs, EC50 (second column pair) [1]: 0.19 nM
EC50 [2]: 1.9 nM
NK cell-mediated lysis of 786-O cells (DELFIA), EC50 [3]: 0.19 nM
NK cell-mediated lysis of BT474 cells (DELFIA), EC50 [3]: 0.14 nM
NK cell-mediated lysis of Detroit 562 cells (DELFIA), EC50 [3]: 0.23 nM
NK cell-mediated lysis of FaDu cells (DELFIA), EC50 [3]: 0.19 nM
NK cell-mediated lysis of H292 cells (DELFIA), EC50 [3]: 0.1 nM
NK cell-mediated lysis of H1703 cells (DELFIA), EC50 [3]: 0.14 nM
NK cell-mediated lysis of H1975 cells (DELFIA), EC50 [3]: 0.29 nM
NK cell-mediated lysis of HCC4006 cells (DELFIA), EC50 [3]: 0.24 nM
NK cell-mediated lysis of HCT116 cells (DELFIA), EC50 [3]: 0.097 nM
NK cell-mediated lysis of HT29 cells (DELFIA), EC50 [3]: 0.42 nM
NK cell-mediated lysis of KYSE-30 cells (DELFIA), EC50 [3]: 0.072 nM
Kd [4]: ~15.1 nM
Kd [5]: 7.8 nM
koff [5]: 0.00091 s⁻¹
kon [5]: 120000 M⁻¹ s⁻¹
EC50 [6]: 4.1 nM
Kd [7]: 7.6 nM
koff [7]: 0.00091 s⁻¹
kon [7]: 120000 M⁻¹ s⁻¹
ADCP of KYSE-30 cells by M0 macrophages, EC50 [8]: 0.089 nM
ADCP of NCI-H292 cells by M0 macrophages, EC50 [8]: 0.15 nM
cynomolgus monkey NK cell activation in co-culture with H292 cells, EC50 [9]: 0.06 nM
cynomolgus monkey NK cell activation in co-culture with KYSE-30 cells, EC50 [9]: 0.06 nM
human NK cell activation in co-culture with H292 cells, EC50 [9]: 0.35 nM
human NK cell activation in co-culture with KYSE-30 cells, EC50 [9]: 0.13 nM
Kd [10]: 370 nM
koff [10]: 0.088 s⁻¹
kon [10]: 240000 M⁻¹ s⁻¹
Kd (Human CD16aV): 112 nM
koff (Human CD16aV): 0.017 s⁻¹
kon (Human CD16aV): 150000 M⁻¹ s⁻¹
Kd [11]: 6.1 nM
koff [11]: 0.00077 s⁻¹
kon [11]: 130000 M⁻¹ s⁻¹
Kd [12]: 7 nM
koff [12]: 0.00086 s⁻¹
kon [12]: 120000 M⁻¹ s⁻¹
EC50 [13]: 2.1 nM
EC50 [14]: 7.1 nM
Kd [15]: 7.6 nM
koff [15]: 0.00088 s⁻¹
kon [15]: 110000 M⁻¹ s⁻¹
EC50 (read off the curve) [16]: ~4 nM
EC50 [17]: 1.5 nM
